Measurements taken from the supplement of paper PMC9170038.

Columns and labels:
MS2 coat protein [1] = assay: apparent KD of MS2 coat protein, switch OFF state (with FMN for OFF switches, without FMN for ON switches); designed switch direction (-1 OFF switch, 1 ON switch): 1; higher = weaker reporter binding; conditions: FMN input: 0 or 200 uM; Eterna round: R93 (includes R88 designs)
In short: (§1)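 With or without constant ligand, designed RNA switches in 100 mM Tris-HCl pH 7.5, 80 mM KCl and 4 mM MgCl2 were titrated with SNAP-549-labelled MS2 coat protein. Concentrations went up in twofold steps from 0.7 or 1.5 nM to 3 µM. The switches had been transcribed on-chip from Illumina sequencing clusters, and apparent KD is the per-design median of normalised cluster binding-curve fits.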

MS2 coat protein [2] = assay: apparent KD of MS2 coat protein, switch ON state; designed switch direction (-1 OFF switch, 1 ON switch): 1; higher = weaker reporter binding; conditions: FMN input: 0 or 200 uM; Eterna round: R93 (includes R88 designs)
In short: as §1

AAAAAACAUGAGGAUCACCCAUGUGAAAAAUUCGCAGGAUAUCCCUUUUUUAAAUGGGAGGGAGAAGGGUGAAAAA [Nob's Hobby 16 - Jieux - Same State 1]
apparent KD of MS2 coat protein (MS2 coat protein [1]): 112 nM
apparent KD of MS2 coat protein (MS2 coat protein [2]): 34.8 nM

AACAAUCUAUCUGAGGAUAUCAUGUCAAAGACAUGAGGAUCACCCAUGUUGCAGGAAACUGCUCAUGAGAAGGCAGAUAGAUUGA [SS2: 1129]
apparent KD of MS2 coat protein (MS2 coat protein [1]): 828 nM
apparent KD of MS2 coat protein (MS2 coat protein [2]): 41 nM

AACAAUCUAUCUGAGGAUAUGAUGUCAAAGACAUGAGGAUCACCCAUGUCCAGGAAAACUGGAUAUCAGAAGGCAGAUAGAUUGA [SS2: 1104]
apparent KD of MS2 coat protein (MS2 coat protein [1]): 12.9 nM
apparent KD of MS2 coat protein (MS2 coat protein [2]): 10.2 nM

AAAAAACAUGAGGAUCACCCAUGUCAAAAGACAUGAGGAUAUGUACAGACUUCGGUCUGUACAGAAGGCAUGUCAA [SS1 - 1019]
apparent KD of MS2 coat protein (MS2 coat protein [1]): 31.7 nM
apparent KD of MS2 coat protein (MS2 coat protein [2]): 21.1 nM

AAAGAAAAACUAGAGGAUAUUUGAAUGGUAACAUGAGGAUCACCCAUGUGAAGAAAGGAACAUGAGGAGAAGGCUAGAAGAAAAA [JL Nando mod 16]
apparent KD of MS2 coat protein (MS2 coat protein [1]): 74.7 nM
apparent KD of MS2 coat protein (MS2 coat protein [2]): 17.5 nM

AGAAAUAAAAGACAGGAUAUCCAAAACUCAACAUGAGGAUCACCCAUGUAAAAGAAAAUAAAAUGGGAGAAGGGUCAAAAUAAGA [Jieux modified + C segment V2]
apparent KD of MS2 coat protein (MS2 coat protein [1]): 33.8 nM
apparent KD of MS2 coat protein (MS2 coat protein [2]): 15.3 nM

GAUAAACAUGAGGAUCACCCAUGUAGAUAUAUGGGAGGAUAUACAAAGACGAUAGUCAUAGUAGAAGGCCUAAUAG [77%, Mat - Mod of Eli - With 5 more U's]
apparent KD of MS2 coat protein (MS2 coat protein [1]): 91.2 nM
apparent KD of MS2 coat protein (MS2 coat protein [2]): 30 nM

AGAAAUAAAAGAGAGGAUAUCCAAAAGAAAACAUGAGGAUCACCCAUGUAAAACAAAACAAAAUGGGAGAAGGCUCAAAAUAAGA [Topaz 15]
apparent KD of MS2 coat protein (MS2 coat protein [1]): 31.4 nM
apparent KD of MS2 coat protein (MS2 coat protein [2]): 19.8 nM

GAAAAACAUGAGGAUCACCCAUGUAGAAAUAUGGGAGGAUAUACAAAGACGAAAGUCGAAGUAGAAGGCCUAAAAG [Mat - Same State 1 - Eli mod - D23]
apparent KD of MS2 coat protein (MS2 coat protein [1]): 66.8 nM
apparent KD of MS2 coat protein (MS2 coat protein [2]): 25.5 nM

AGGAAACAUGAGGAUCACCCAUGUAAAAAAUAUGGAGGAUAUGCUAGAAGAAACAAAAUAGCAGAAGGCCAAAAAA [75%, Ex sub1, 23]
apparent KD of MS2 coat protein (MS2 coat protein [1]): 24.7 nM
apparent KD of MS2 coat protein (MS2 coat protein [2]): 13.7 nM

AUAUAUAUAAGGUAGGAUAUCCAAAAAUCCACAUGAGGAUCACCCAUGUAAAGAAAGAAAAAAUGGGAGAAGGACCAUAUAUAUA [77%, More Tesla, 6]
apparent KD of MS2 coat protein (MS2 coat protein [1]): 31.9 nM
apparent KD of MS2 coat protein (MS2 coat protein [2]): 16.9 nM

AUAAAGAAAACACAGGAUAUCCAAAAGAAAACAUGAGGAUCACCCAUGUAAAGAAAAUAAAAAUGGGAGAAGGGUGAAAGAAAUA [Mat - Same State 2 - JL mod - D40]
apparent KD of MS2 coat protein (MS2 coat protein [1]): 109 nM
apparent KD of MS2 coat protein (MS2 coat protein [2]): 34.8 nM

GUAGAACAUGAGGAUCACCCAUGUGAAGACGCAUGAGGAUAUAUACGUAAAUAGCAUACGAUAGAAGGCAUGAUAA [JR_SS001_Sub1703]
apparent KD of MS2 coat protein (MS2 coat protein [1]): 53.5 nM
apparent KD of MS2 coat protein (MS2 coat protein [2]): 25.5 nM

CGAAGACAUGAGGAUCACCCAUGUGGGAUUAUGGGAGGAUAUACAAAGACGAGAGUCAGAGUAGAAGGCCUAGGAA [salish99-ss1-124(!)]
apparent KD of MS2 coat protein (MS2 coat protein [1]): 38.5 nM
apparent KD of MS2 coat protein (MS2 coat protein [2]): 23.3 nM

CGAAGACAUGAGGAUCACCCAUGUGGGAAUAUGGGAGGAUAUACAAAGACGAGAGUCAGAGUAGAAGGCCUAGGAC [salish99-ss1-108]
apparent KD of MS2 coat protein (MS2 coat protein [1]): 75.5 nM
apparent KD of MS2 coat protein (MS2 coat protein [2]): 26.5 nM

AAAAAACAUGAGGAUCACCCAUGUCUUCGGACAUGAGGAUAUGUACAGACUUCGGUCUGUACAGAAGGCAUAAAAA [SS1 - 1010]
apparent KD of MS2 coat protein (MS2 coat protein [1]): 12.6 nM
apparent KD of MS2 coat protein (MS2 coat protein [2]): 221 nM

AAUAAGACUAGCAAGGAUAUCUAAAACGAAACAUGAGGAUCACCCAUGUAACGAGUACACGUAUCAGAGAAGGUGCAGGGUGAAA [JR_SS002_Sub305]
apparent KD of MS2 coat protein (MS2 coat protein [1]): 16.2 nM
apparent KD of MS2 coat protein (MS2 coat protein [2]): 36.1 nM

AAAACACAUGAGGAUCACCCAUGUAAAAACUUGGGAGGAUAUGCUUGGAAAACAUGCUAUGCAGAAGGCUCUAGUG [SS1 - 13]
apparent KD of MS2 coat protein (MS2 coat protein [1]): 123 nM
apparent KD of MS2 coat protein (MS2 coat protein [2]): 49.9 nM

CUGGACGUAGGAUAGGAUAUAUGAAUAAUUACAUGAGGAUCACCCAUGUCCAUUUAUAUGGGAACAUAGAAGGGUUGUGGUUAAG [Mat - Same state - Malcolm Mod - D145]
apparent KD of MS2 coat protein (MS2 coat protein [1]): 241 nM
apparent KD of MS2 coat protein (MS2 coat protein [2]): 160 nM

AAGUCACAUGAGGAUCACCCAUGUCGUAAACGAUGAGGAUAUAGGAAGAAAAAAAAAAAACUAGAAGGUAUUACAA [SameState1-02]
apparent KD of MS2 coat protein (MS2 coat protein [1]): 28.6 nM
apparent KD of MS2 coat protein (MS2 coat protein [2]): 32.5 nM

AAAACACAUGAGGAUCACCCAUGUAGAAAUACGGGAGGAUAUGCUAAAACGAAAGACAAUGUAGAAGGCCUAAAAG [saturn 10]
apparent KD of MS2 coat protein (MS2 coat protein [1]): 59.6 nM
apparent KD of MS2 coat protein (MS2 coat protein [2]): 37.7 nM

AAUCCAAAUAGUCAGGAUAUCAAAAAUAAGACAUGAGGAUCACCCAUGUAAUAAGUAAAAGUAAAUGAGAAGGGACAGGGUGAAA [JR_SS002_Sub401]
apparent KD of MS2 coat protein (MS2 coat protein [1]): 92.8 nM
apparent KD of MS2 coat protein (MS2 coat protein [2]): 398 nM

AAAUGAUCAUGUGAGGAUAUCCAUAAUAAAACAUGAGGAUCACCCAUGUAUAGAUAAUAAUAAUGGGAGAAGGCACAUGAUCAAU [Mat - Same state - Mayanna Mod - D103]
apparent KD of MS2 coat protein (MS2 coat protein [1]): 17.2 nM
apparent KD of MS2 coat protein (MS2 coat protein [2]): 20 nM

AAGAAACAUGAGGAUCACCCAUGUAAAUUCAAGAGAGGAUAUCGUACAUGGAAGAUUCAACGAGAAGGCUCUAGAA [Pariah 3 (MS2 Riboswitches - Same State 1)]
apparent KD of MS2 coat protein (MS2 coat protein [1]): 83 nM
apparent KD of MS2 coat protein (MS2 coat protein [2]): 19.3 nM

AGGAAACAUGAGGAUCACCCAUGUAAAAAUAACGCAGGAUAUGGAAACACGAAAGUGAAACCAGAAGGGUGAAAAG [77%, Mat - Mod of Eli, 14]
apparent KD of MS2 coat protein (MS2 coat protein [1]): 29.8 nM
apparent KD of MS2 coat protein (MS2 coat protein [2]): 18.9 nM

GGCAGUCCGACACAGGAUAUGGGUAACGAAACAUGAGGAUCACCCAUGUGGAAACAUCGGGUUGCCUAGAAGGGUGGAAAGAUUG [Xeti]
apparent KD of MS2 coat protein (MS2 coat protein [1]): 259 nM
apparent KD of MS2 coat protein (MS2 coat protein [2]): 26.4 nM

ACUAGGAAGAGAGAGGAUAUCCAAAGGAAAACAUGAGGAUCACCCAUGUAAAAGGUAGGAAAUUGGGAGAAGGCUCAAGAGAGAG [salish99-ss2-085]
apparent KD of MS2 coat protein (MS2 coat protein [1]): 24.4 nM
apparent KD of MS2 coat protein (MS2 coat protein [2]): 22.9 nM

AGAAGACAUGAGGAUCACCCAUGUGCACGUGGAGGAGGAUAUGCUAGUAGAAGAUAGAAUGCAGAAGGCCUAAGAA [Mat - Mod]
apparent KD of MS2 coat protein (MS2 coat protein [1]): 38.5 nM
apparent KD of MS2 coat protein (MS2 coat protein [2]): 51.9 nM

GAAAAACAUGAGGAUCACCCAUGUAGAAAUAUGGUAGGAUAUACAAAGACGAAAGUCAAAGUAGAAGGGCCAAAAG [Starry Same State 1.4 (mat747 round 1 mod)]
apparent KD of MS2 coat protein (MS2 coat protein [1]): 19 nM
apparent KD of MS2 coat protein (MS2 coat protein [2]): 13 nM

AAAACACAUGAGGAUCACCCAUGUCAAAAAAACACAGGAUAUCCAAAAAAAAAAAAAAAAGGAGAAGGGUGAAAAA [high kcal]
apparent KD of MS2 coat protein (MS2 coat protein [1]): 42 nM
apparent KD of MS2 coat protein (MS2 coat protein [2]): 65 nM

AAGAAACAUGAGGAUCACCCAUGUGAGAUAAACACAGGAUAUGCGAAAAUAAAUAAAUAAGCAGAAGGGUGAAGAA [Mat - Same State 1 - Tesla mod - 69]
apparent KD of MS2 coat protein (MS2 coat protein [1]): 82.6 nM
apparent KD of MS2 coat protein (MS2 coat protein [2]): 30.2 nM

GAAGACAUAGUAUAGGAUAUAUGAAUAAUUACAUGAGGAUCACCCAUGUGCAUUUAUAUGCGAACAUAGAAGGGUGGUAGUUGUC [Mat - Same state - Malcolm Mod - D129]
apparent KD of MS2 coat protein (MS2 coat protein [1]): 59.2 nM
apparent KD of MS2 coat protein (MS2 coat protein [2]): 633 nM

AACCAACAUGAGGAUCACCCAUGUCUACAGGAUUAAGGAUAUGGGCAGGGCUUCCCUGCACUAGAAGGUGAUCCAA [Enonenen]
apparent KD of MS2 coat protein (MS2 coat protein [1]): 52.3 nM
apparent KD of MS2 coat protein (MS2 coat protein [2]): 409 nM

AAAAGACAUGAGGAUCACCCAUGUAAAGACGUGGGAGGAUAUGUAUGGAAACCAGACUGUACAGAAGGCCUCUGUC [SS1 - 72]
apparent KD of MS2 coat protein (MS2 coat protein [1]): 243 nM
apparent KD of MS2 coat protein (MS2 coat protein [2]): 165 nM

UAGAGACAUGAGGAUCACCCAUGUAGGAUUAUGGGAGGAUAUACAAAGACGAGAGUCAGAGUAGAAGGCCUAGGAU [salish99-ss1-134(!)]
apparent KD of MS2 coat protein (MS2 coat protein [1]): 61.4 nM
apparent KD of MS2 coat protein (MS2 coat protein [2]): 27.4 nM

AGGAGACAUGAGGAUCACCCAUGUAGAAGGAUGGGAGGAUAUACAAAGACGAGAGUCAGAGUAGAAGGCCUAGGAA [salish99-ss1-182(!)]
apparent KD of MS2 coat protein (MS2 coat protein [1]): 55.4 nM
apparent KD of MS2 coat protein (MS2 coat protein [2]): 19.7 nM

AAAUAAAUGACUCAGGAUAUGUCAGAGAAAACAUGAGGAUCACCCAUGUAAUAAUAACAUGUGUGACAGAAGGGAGUCAAUAAAU [LROPPY Same State 2 - v01_deltaG=.6]
apparent KD of MS2 coat protein (MS2 coat protein [1]): 15 nM
apparent KD of MS2 coat protein (MS2 coat protein [2]): 27.2 nM

AAAACACAUGAGGAUCACCCAUGUAAAAACAUGAGAGGAUAUGCAUGGAAAAAAAACUAUGCAGAAGGCUCAUGUG [SS1 - 4]
apparent KD of MS2 coat protein (MS2 coat protein [1]): 32.2 nM
apparent KD of MS2 coat protein (MS2 coat protein [2]): 21.2 nM
